In publication PMC4872093, “Structural insights into DNA sequence recognition by Type ISP restriction-modification enzymes”:

T1: LlaGIΔN (UniProt Q93R01 1-1+166-1570, internal_change)
T1 sequence: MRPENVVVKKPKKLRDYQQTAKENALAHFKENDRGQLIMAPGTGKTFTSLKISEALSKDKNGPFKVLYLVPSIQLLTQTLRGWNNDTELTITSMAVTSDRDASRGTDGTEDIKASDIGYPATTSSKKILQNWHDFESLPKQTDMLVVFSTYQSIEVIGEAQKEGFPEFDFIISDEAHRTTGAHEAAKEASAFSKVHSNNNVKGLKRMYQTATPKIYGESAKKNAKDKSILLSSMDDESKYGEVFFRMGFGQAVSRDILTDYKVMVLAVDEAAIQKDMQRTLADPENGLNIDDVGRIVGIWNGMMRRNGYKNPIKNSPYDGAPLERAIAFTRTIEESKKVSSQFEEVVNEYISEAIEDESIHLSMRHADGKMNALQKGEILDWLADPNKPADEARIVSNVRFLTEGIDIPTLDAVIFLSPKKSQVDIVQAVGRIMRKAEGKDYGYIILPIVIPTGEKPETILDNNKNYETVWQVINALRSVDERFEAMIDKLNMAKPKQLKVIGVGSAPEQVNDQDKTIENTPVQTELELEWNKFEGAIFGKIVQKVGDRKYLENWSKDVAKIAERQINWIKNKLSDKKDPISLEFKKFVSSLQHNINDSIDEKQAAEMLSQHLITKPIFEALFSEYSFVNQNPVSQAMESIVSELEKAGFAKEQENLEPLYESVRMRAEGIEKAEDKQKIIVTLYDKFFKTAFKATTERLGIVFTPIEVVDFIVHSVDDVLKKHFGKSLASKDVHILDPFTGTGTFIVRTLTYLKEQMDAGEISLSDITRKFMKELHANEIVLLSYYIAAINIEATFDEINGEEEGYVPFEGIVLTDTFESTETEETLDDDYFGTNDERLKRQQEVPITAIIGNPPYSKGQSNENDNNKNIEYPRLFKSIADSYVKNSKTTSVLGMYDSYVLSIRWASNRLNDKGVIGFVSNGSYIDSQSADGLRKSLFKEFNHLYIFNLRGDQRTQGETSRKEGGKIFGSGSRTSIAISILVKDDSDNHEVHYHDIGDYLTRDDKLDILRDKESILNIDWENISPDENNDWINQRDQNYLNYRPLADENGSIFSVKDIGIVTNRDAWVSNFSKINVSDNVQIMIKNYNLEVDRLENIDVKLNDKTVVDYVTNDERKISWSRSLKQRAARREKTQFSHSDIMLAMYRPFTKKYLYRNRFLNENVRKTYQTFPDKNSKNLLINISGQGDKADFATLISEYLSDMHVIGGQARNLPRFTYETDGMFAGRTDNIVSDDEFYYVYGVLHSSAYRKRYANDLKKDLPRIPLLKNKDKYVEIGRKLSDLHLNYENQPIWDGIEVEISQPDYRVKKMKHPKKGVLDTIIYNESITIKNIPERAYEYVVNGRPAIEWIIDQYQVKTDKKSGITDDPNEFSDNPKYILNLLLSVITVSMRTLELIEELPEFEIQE

B1: LlaGIΔN co-crystal duplex (22 bp) (dsDNA)
DNA 1: TTAGCTAATAGACTGGATGGAGG
DNA 2: TCCTCCATCCAGTCTATTAGCTA
B2: LlaGI co-crystal duplex (28 bp) (dsDNA)
DNA 1: GCTCTAGCTAATAGACTGGATGGAGGTG
DNA 2: CACCTCCATCCAGTCTATTAGCTAGAGC

What was measured:
[1] = molecular target: T1, LlaGIΔN; assay: X-ray crystallography, 2.84 A; no AdoMet; target adenine flipped; EMSA: 50 mM Tris-HCl pH 7.4, 100 mM NaCl, 10 mM MgCl2, 0.01 mg/ml BSA, 1 mM DTT, 10% glycerol, 4 C. Crystals at 291 K: LlaGIΔN 100 mM Tris-HCl pH 7.4, 20% PEG 20000, 4% PEG 550 MME, 150-250 mM Na acetate; LlaGI 100 mM MES pH 5.6, 300 mM KCl, 6.5% PEG 20000; conditions: protein: recombinant; 5' overhang 1 nt (T) on both strands, 22 bp paired
[2] = molecular target: LlaGI full-length (crystal) (UniProt Q93R01 1-1570, D78A); assay: X-ray crystallography, 7.4 A; EMSA: 50 mM Tris-HCl pH 7.4, 100 mM NaCl, 10 mM MgCl2, 0.01 mg/ml BSA, 1 mM DTT, 10% glycerol, 4 C. Crystals at 291 K: LlaGIΔN 100 mM Tris-HCl pH 7.4, 20% PEG 20000, 4% PEG 550 MME, 150-250 mM Na acetate; LlaGI 100 mM MES pH 5.6, 300 mM KCl, 6.5% PEG 20000; conditions: protein: recombinant; blunt

Row | Binder | binding result [1] | binding result [2]
1 | B1 | binds | 
2 | B2 |  | binds
